Laboratory results reported in patent publication US8367390B2, “Galactanase variants” (Novozymes A/S, priority 2002, dated 2013).

Assay: Activity with ONPG, release of o-nitrophenol (ONP) at 405 nm
Format: biochemical
Details: enzyme 110 μg/ml, ONPG 5 mg/ml
Description: The activity of HIGAL and MTGAL with ONPG was tested by mixing 200 microliters (normally 5.5 mg/ml) ONPG in 50 mM sodium acetate, 1 mM CaCl2, 0.01% Triton X-100, pH 6.5 with 25 microliters galactanase (normally 1 mg/ml) in the well of a microtiter plate. Release of o-nitrophenol (ONP) was measured at room temperature at 405 nm every 10 seconds normally for 30 min on a SpectraMaxPlus (Molecular Devices). Effects on the observed release of ONP was studied with varied enzyme concentration, ONPG concentration and with addition of galactose (Gal), beta-1,4-galactobiose (Gal2) (Megazyme), beta-1,4-galactotriose (Gal3), beta-1,4-galactotetraose (Gal4), glucose (Glu), arabinose (Ara), galacturonic acid (GalA), maltose (Mal) or maltotriose (Mal3).
In Tables 8-11 below, incubation times required to increase the observed absorbance at 405 nm by given amounts are listed. Cells marked ‘n.r.’ indicate that the increase in absorbance was not reached in the experiment. In general, the initial increase in absorbance at 405 nm was very slow, but after a lag phase the rate of ONP release often increased drastically—often approximately exponentially. The most likely explanation for the observed kinetics is that ONPG reacts with the enzyme to give an enzyme-galactosyl intermediate which hydrolyses very slowly. Instead, the Gal of the intermediate is released by transglycosylation, initially with ONPG or added sugar as acceptor. In cases where the rate of ONP release increases, these transglycosylation products are even better acceptors than the initial ones. […] More likely, Gal inhibits the subsequent transglycosylation, which requires binding of ONPG to the +1 and +2 subsites, e.g., by binding to the +2 subsite. With 50 mg/ml Gal added (results not shown) release of ONP was even slower with only insignificant increase of absorbance at 405 nm in 30 min.

[1] = Table 11, no sugar, first experiment
[2] = Table 11, no sugar, second experiment
[3] = Table 11, no sugar, third experiment

B1: HIGAL: GH Family 53 galactanase from Humicola insolens, SEQ ID NO: 2 (wild type parent) (protein, listed as Humicola insolens)
chain: ALQYKGVDWSSVMVEERAGVRYKNVNGQEKPLEYILAENGVNMVRQRVWVNPWDGNYNLDYNIQLARRAKAAGLGLYINFHYSDTWADPAHQTTPAGWPSDINNLAWKLYNYTLDSMNRFADAGIQVDIVSIGNEITQGLLWPLGKTNNWYNIARLLHSAAWGVKDSRLNPKPKIMVHLDNGWNWDTQNWWYTNVLSQGPFEMSDFDMMGVSFYPFYSASATLDSLRRSLNNMVSRWGKEVAVVETNWPTSCPYPRYQFPADVRNVPFSAAGQTQYIQSVANVVSSVSKGVGLFYWEPAWIHNANLGSSCADNTMFTPSGQALSSLSVFHRI
modifications: mat_peptide (1)..()
- Initial rate (mOD/min) (Table 10, Gal3 0.5 mg/ml): 200 mOD/min
- Time (min) to increase A405 by: 0.025 (Table 10, Gal3 0.5 mg/ml): 0.0 min
- Time (min) to increase A405 by: 0.05 (Table 10, Gal3 0.5 mg/ml): 0.2 min
- Time (min) to increase A405 by: 0.1 (Table 10, Gal3 0.5 mg/ml): 0.3 min
- Time (min) to increase A405 by: 0.2 (Table 10, Gal3 0.5 mg/ml): 0.5 min
- Time (min) to increase A405 by: 0.4 (Table 10, Gal3 0.5 mg/ml): 0.8 min
- Time (min) to increase A405 by: 0.8 (Table 10, Gal3 0.5 mg/ml): 1.5 min
- Time (min) to increase A405 by: 1.6 (Table 10, Gal3 0.5 mg/ml): 2.5 min
- Time (min) to increase A405 by: 3.2 (Table 10, Gal3 0.5 mg/ml): 3.8 min
- Initial rate (mOD/min) (Table 10, Gal4 0.05 mg/ml): 80 mOD/min
- Time (min) to increase A405 by: 0.025 (Table 10, Gal4 0.05 mg/ml): 0.2 min
- Time (min) to increase A405 by: 0.05 (Table 10, Gal4 0.05 mg/ml): 0.5 min
- Time (min) to increase A405 by: 0.1 (Table 10, Gal4 0.05 mg/ml): 0.8 min
- Time (min) to increase A405 by: 0.2 (Table 10, Gal4 0.05 mg/ml): 1.5 min
- Time (min) to increase A405 by: 0.4 (Table 10, Gal4 0.05 mg/ml): 2.5 min
- Time (min) to increase A405 by: 0.8 (Table 10, Gal4 0.05 mg/ml): 3.7 min
- Time (min) to increase A405 by: 1.6 (Table 10, Gal4 0.05 mg/ml): 5.2 min
- Time (min) to increase A405 by: 3.2 (Table 10, Gal4 0.05 mg/ml): 7.5 min
- Initial rate (mOD/min) (Table 10, Gal4 0.5 mg/ml): 700 mOD/min
- Time (min) to increase A405 by: 0.025 (Table 10, Gal4 0.5 mg/ml): 0.0 min
- Time (min) to increase A405 by: 0.05 (Table 10, Gal4 0.5 mg/ml): 0.0 min
- Time (min) to increase A405 by: 0.1 (Table 10, Gal4 0.5 mg/ml): 0.0 min
- Time (min) to increase A405 by: 0.2 (Table 10, Gal4 0.5 mg/ml): 0.2 min
- Time (min) to increase A405 by: 0.4 (Table 10, Gal4 0.5 mg/ml): 0.5 min
- Time (min) to increase A405 by: 0.8 (Table 10, Gal4 0.5 mg/ml): 1.0 min
- Time (min) to increase A405 by: 1.6 (Table 10, Gal4 0.5 mg/ml): 2.2 min
- Time (min) to increase A405 by: 3.2 (Table 10, Gal4 0.5 mg/ml): 5.3 min
- Initial rate (mOD/min) (Table 10, no sugar): 0.9 mOD/min
- Time (min) to increase A405 by: 0.025 (Table 10, no sugar): 10.0 min
- Time (min) to increase A405 by: 0.05 (Table 10, no sugar): 11.3 min
- Time (min) to increase A405 by: 0.1 (Table 10, no sugar): 12.8 min
- Time (min) to increase A405 by: 0.2 (Table 10, no sugar): 14.2 min
- Time (min) to increase A405 by: 0.4 (Table 10, no sugar): 15.7 min
- Time (min) to increase A405 by: 0.8 (Table 10, no sugar): 17.0 min
- Time (min) to increase A405 by: 1.6 (Table 10, no sugar): 18.5 min
- Time (min) to increase A405 by: 3.2 (Table 10, no sugar): 20.0 min
- Time (min) to increase A405 by: 0.025 (Table 11, Ara 5 mg/ml): 26.5 min
- Time (min) to increase A405 by: 0.05 (Table 11, Ara 5 mg/ml): n.r.
- Time (min) to increase A405 by: 0.1 (Table 11, Ara 5 mg/ml): n.r.
- Time (min) to increase A405 by: 0.2 (Table 11, Ara 5 mg/ml): n.r.
- Time (min) to increase A405 by: 0.4 (Table 11, Ara 5 mg/ml): n.r.
- Time (min) to increase A405 by: 0.8 (Table 11, Ara 5 mg/ml): n.r.
- Time (min) to increase A405 by: 1.6 (Table 11, Ara 5 mg/ml): n.r.
- Time (min) to increase A405 by: 3.2 (Table 11, Ara 5 mg/ml): n.r.
- Time (min) to increase A405 by: 0.025 (Table 11, GalA 5 mg/ml): 9.5 min
- Time (min) to increase A405 by: 0.05 (Table 11, GalA 5 mg/ml): 11.2 min
- Time (min) to increase A405 by: 0.1 (Table 11, GalA 5 mg/ml): 12.7 min
- Time (min) to increase A405 by: 0.2 (Table 11, GalA 5 mg/ml): 14.3 min
- Time (min) to increase A405 by: 0.4 (Table 11, GalA 5 mg/ml): 15.8 min
- Time (min) to increase A405 by: 0.8 (Table 11, GalA 5 mg/ml): 17.5 min
- Time (min) to increase A405 by: 1.6 (Table 11, GalA 5 mg/ml): 19.3 min
- Time (min) to increase A405 by: 3.2 (Table 11, GalA 5 mg/ml): 22.5 min
- Time (min) to increase A405 by: 0.025 (Table 11, GalA 50 mg/ml): 13.7 min
- Time (min) to increase A405 by: 0.05 (Table 11, GalA 50 mg/ml): 16.7 min
- Time (min) to increase A405 by: 0.1 (Table 11, GalA 50 mg/ml): 20.0 min
- Time (min) to increase A405 by: 0.2 (Table 11, GalA 50 mg/ml): 23.3 min
- Time (min) to increase A405 by: 0.4 (Table 11, GalA 50 mg/ml): 26.8 min
- Time (min) to increase A405 by: 0.8 (Table 11, GalA 50 mg/ml): n.r.
- Time (min) to increase A405 by: 1.6 (Table 11, GalA 50 mg/ml): n.r.
- Time (min) to increase A405 by: 3.2 (Table 11, GalA 50 mg/ml): n.r.
- Time (min) to increase A405 by: 0.025 (Table 11, Glu 5 mg/ml): 12.8 min
- Time (min) to increase A405 by: 0.05 (Table 11, Glu 5 mg/ml): 14.8 min
- Time (min) to increase A405 by: 0.1 (Table 11, Glu 5 mg/ml): 17.0 min
- Time (min) to increase A405 by: 0.2 (Table 11, Glu 5 mg/ml): 19.3 min
- Time (min) to increase A405 by: 0.4 (Table 11, Glu 5 mg/ml): 21.8 min
- Time (min) to increase A405 by: 0.8 (Table 11, Glu 5 mg/ml): 24.3 min
- Time (min) to increase A405 by: 1.6 (Table 11, Glu 5 mg/ml): 27.0 min
- Time (min) to increase A405 by: 3.2 (Table 11, Glu 5 mg/ml): n.r.
- Time (min) to increase A405 by: 0.025 (Table 11, Mal 5 mg/ml): 11.5 min
- Time (min) to increase A405 by: 0.05 (Table 11, Mal 5 mg/ml): 13.0 min
- Time (min) to increase A405 by: 0.1 (Table 11, Mal 5 mg/ml): 14.3 min
- Time (min) to increase A405 by: 0.2 (Table 11, Mal 5 mg/ml): 15.7 min
- Time (min) to increase A405 by: 0.4 (Table 11, Mal 5 mg/ml): 17.2 min
- Time (min) to increase A405 by: 0.8 (Table 11, Mal 5 mg/ml): 18.7 min
- Time (min) to increase A405 by: 1.6 (Table 11, Mal 5 mg/ml): 20.2 min
- Time (min) to increase A405 by: 3.2 (Table 11, Mal 5 mg/ml): 22.0 min
- Time (min) to increase A405 by: 0.025 (Table 11, Mal3 5 mg/ml): 11.0 min
- Time (min) to increase A405 by: 0.05 (Table 11, Mal3 5 mg/ml): 12.3 min
- Time (min) to increase A405 by: 0.1 (Table 11, Mal3 5 mg/ml): 13.8 min
- Time (min) to increase A405 by: 0.2 (Table 11, Mal3 5 mg/ml): 15.2 min
- Time (min) to increase A405 by: 0.4 (Table 11, Mal3 5 mg/ml): 16.5 min
- Time (min) to increase A405 by: 0.8 (Table 11, Mal3 5 mg/ml): 18.0 min
- Time (min) to increase A405 by: 1.6 (Table 11, Mal3 5 mg/ml): 19.3 min
- Time (min) to increase A405 by: 3.2 (Table 11, Mal3 5 mg/ml): 21.3 min
- Time (min) to increase A405 by: 0.025 [1]: 8.5 min
- Time (min) to increase A405 by: 0.05 [1]: 9.5 min
- Time (min) to increase A405 by: 0.1 [1]: 10.8 min
- Time (min) to increase A405 by: 0.2 [1]: 12.0 min
- Time (min) to increase A405 by: 0.4 [1]: 13.3 min
- Time (min) to increase A405 by: 0.8 [1]: 14.5 min
- Time (min) to increase A405 by: 1.6 [1]: 15.8 min
- Time (min) to increase A405 by: 3.2 [1]: 17.3 min
- Time (min) to increase A405 by: 0.025 [2]: 11.0 min
- Time (min) to increase A405 by: 0.05 [2]: 12.5 min
- Time (min) to increase A405 by: 0.1 [2]: 13.8 min
- Time (min) to increase A405 by: 0.2 [2]: 15.2 min
- Time (min) to increase A405 by: 0.4 [2]: 16.5 min
- Time (min) to increase A405 by: 0.8 [2]: 18.0 min
- Time (min) to increase A405 by: 1.6 [2]: 19.5 min
- Time (min) to increase A405 by: 3.2 [2]: 21.3 min
- Time (min) to increase A405 by: 0.025 [3]: 8.7 min
- Time (min) to increase A405 by: 0.05 [3]: 9.8 min
- Time (min) to increase A405 by: 0.1 [3]: 11.0 min
- Time (min) to increase A405 by: 0.2 [3]: 12.2 min
- Time (min) to increase A405 by: 0.4 [3]: 13.3 min
- Time (min) to increase A405 by: 0.8 [3]: 14.7 min
- Time (min) to increase A405 by: 1.6 [3]: 16.0 min
- Time (min) to increase A405 by: 3.2 [3]: 17.3 min
